The labels stand for the following.
B1: tilvestamab scFv-osmY F33S (scFv, V domains shown)
VH: EVQLVESGGGLVQPGGSLRLSCAASGYSFTDSYINWVRQAPGKGLEWVARIFPGGDNTYYNEKFKGRFTLSADTSKSTAYLQMNSLRAEDTAVYYCARRGLYYAMDYWGQGTLVTVSS
VL: DIQMTQSPSSLSASVGDRVTITCRSSQSLVHSNGIPYLHWYQQKPGKAPKLLIYRVSNRFSGVPSRFSGSGSGTDFTLTISSLQPEDFATYYCSQGTHVPPTFGQGTKVEIK
notes: VH of tilvestamab, as the VH of m1; numbers count on: the scFv-osmY fusion protein; linker; VL of tilvestamab, as the VL of m1; source: E. coli T7 expression strain, secreted, culture supernatant used directly; not shown: His6, C-terminal, kept
B2: tilvestamab scFv-osmY P238A (scFv, V domains shown)
VH: EVQLVESGGGLVQPGGSLRLSCAASGYSFTDFYINWVRQAPGKGLEWVARIFPGGDNTYYNEKFKGRFTLSADTSKSTAYLQMNSLRAEDTAVYYCARRGLYYAMDYWGQGTLVTVSS
VL: DIQMTQSPSSLSASVGDRVTITCRSSQSLVHSNGIPYLHWYQQKPGKAPKLLIYRVSNRFSGVPSRFSGSGSGTDFTLTISSLQPEDFATYYCSQGTHVPATFGQGTKVEIK
notes: VH of tilvestamab, as the VH of m1; linker; VL of tilvestamab, as the VL of m1; numbers count on: the scFv-osmY fusion protein; source: E. coli T7 expression strain, secreted, culture supernatant used directly; not shown: His6, C-terminal, kept
B3: tilvestamab scFv-osmY F33T (scFv, V domains shown)
VH: EVQLVESGGGLVQPGGSLRLSCAASGYSFTDTYINWVRQAPGKGLEWVARIFPGGDNTYYNEKFKGRFTLSADTSKSTAYLQMNSLRAEDTAVYYCARRGLYYAMDYWGQGTLVTVSS
VL: DIQMTQSPSSLSASVGDRVTITCRSSQSLVHSNGIPYLHWYQQKPGKAPKLLIYRVSNRFSGVPSRFSGSGSGTDFTLTISSLQPEDFATYYCSQGTHVPPTFGQGTKVEIK
notes: as for B1

This experiment concerns the target T1, AXL Ig1 domain fused to human Fc (Homo sapiens, UniProt P30530).
T1 construct: AXL receptor tyrosine kinase, human, Ig1 domain of the extracellular domain; Construct limits and production are in the Supplementary Information; also called AXL Ig1-Fc; AXL-Ig1-Fc
Kind of experiment: BLI; Octet RED96; His-tagged scFv-osmY captured on Ni-NTA tips from undiluted bacterial supernatant (600 s); AXL Ig1 domain Fc 5.6 ug/ml in kinetic buffer (0.02% Tween 20, 0.05% sodium azide, 0.1% BSA in PBS) as analyte; rat Axl-Fc as control; traces scored by eye (normal, fast, very fast, weak, weak fast, none). To be noted: one partner purified.
Consider B1, for which the binding result was “binds”.
As to B2, the binding result is “binds”.
B3: the binding result was “binds”.
